The results in this text go back to article PMC7504130.

This data set deals with PARP-1 (UniProt P09874). Briefly: EMSA. The conditions noted are these: EMSA: 20 mM Tris-HCl pH 8, 30 mM KCl, 1.5 mM MgCl2, 1 mM DTT, 8% glycerol, 50 uM ZnAc, 2.5 ng/mL poly[dI-dC], 25 C, 50 nM DNA; pull-down: 20 mM Tris-HCl pH ….
PARP-1, sequence (P09874 2-1014): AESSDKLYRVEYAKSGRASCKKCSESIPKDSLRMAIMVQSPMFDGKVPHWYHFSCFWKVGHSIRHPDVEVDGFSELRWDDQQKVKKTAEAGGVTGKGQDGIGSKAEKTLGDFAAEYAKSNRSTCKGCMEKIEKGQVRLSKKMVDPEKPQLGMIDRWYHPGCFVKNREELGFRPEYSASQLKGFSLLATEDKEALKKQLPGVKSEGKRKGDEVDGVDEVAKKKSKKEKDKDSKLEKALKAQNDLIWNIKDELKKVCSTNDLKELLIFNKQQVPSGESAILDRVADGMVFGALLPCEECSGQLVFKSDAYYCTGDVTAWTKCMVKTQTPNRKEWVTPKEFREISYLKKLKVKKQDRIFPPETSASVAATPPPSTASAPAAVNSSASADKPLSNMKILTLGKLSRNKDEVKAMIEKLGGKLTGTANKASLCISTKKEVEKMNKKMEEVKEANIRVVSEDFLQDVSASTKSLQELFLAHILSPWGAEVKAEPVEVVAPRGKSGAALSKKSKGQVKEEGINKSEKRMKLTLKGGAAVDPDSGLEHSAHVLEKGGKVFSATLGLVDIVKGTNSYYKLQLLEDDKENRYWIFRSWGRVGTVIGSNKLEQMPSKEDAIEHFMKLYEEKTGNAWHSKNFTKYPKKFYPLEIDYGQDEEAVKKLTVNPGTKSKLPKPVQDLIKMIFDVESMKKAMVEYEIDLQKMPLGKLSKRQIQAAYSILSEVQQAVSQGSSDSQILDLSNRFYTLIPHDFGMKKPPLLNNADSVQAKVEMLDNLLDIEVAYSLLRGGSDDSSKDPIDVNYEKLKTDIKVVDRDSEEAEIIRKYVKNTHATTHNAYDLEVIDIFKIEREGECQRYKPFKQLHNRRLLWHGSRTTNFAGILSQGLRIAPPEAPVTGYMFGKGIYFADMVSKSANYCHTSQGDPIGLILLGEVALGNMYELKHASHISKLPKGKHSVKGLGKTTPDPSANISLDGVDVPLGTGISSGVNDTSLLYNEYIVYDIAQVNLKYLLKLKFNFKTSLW
For the sequence “AGGGCGGTGTGGGAAGAGGGAAGAGGGGGAGG [Cy5.5-32R (G4 32R)]”, the Kd was determined as 0.2 µM. Sequence “CGGGGAGAAGGAGGGGGCCGGGCCGGGC [Cy5.5-mid1 (G4 mid1)]” returned a Kd of 0.36 µM.

“CGGGCCGGCGGGGGAGGAGCGGGGGCCGGGC [Cy5.5-mid2 (G4 mid2)]” displayed a Kd of 0.37 µM.
